In US20170334947A1 one finds 55% DBC, Recovery rate and Binding capacity per ligand density data, which are given here for three substances.

The target in assay [1] is Fab fragment of anti-TNFα monoclonal antibody (generic name: Adalimumab) (humanized monoclonal IgG product (filing's words)). Kind of assay: affinity chromatography, ligand […]-gel.
Assay [2] has the same target. Kind of assay: affinity chromatography, Fab kept after 40 CV wash, ligand 2.0 mg/mL-gel, 5.2 mg Fab loaded.
Assay [3] shares this target. Put plainly: affinity chromatography, 55% DBC divided by immobilised ligand, 2.0 mg/mL-gel.
Assay [4] has the same target. Kind of assay: affinity chromatography, ligand 2.0 mg/mL-gel.
The target is the same in assay [5]. Put plainly: affinity chromatography, Fab kept after 40 CV wash, ligand […]-gel, 10.5 mg Fab loaded.
Assay [6] shares this target. Kind of assay: affinity chromatography, Fab kept after 40 CV wash, ligand 2.0 mg/mL-gel, 4.8 mg Fab loaded.
For assay [7] the target is unchanged. Kind of assay: affinity chromatography, Protein-G Sepharose FF.

Take Pep-SpGβ1-Wild.2dC: the 55% DBC in assay [1] came out at 21 mg/mL-gel; in assay [4], 10.4 mg/mL-gel. Moreover, the Recovery rate in assay [2] came out at 28%; in assay [5], 43%. The Binding capacity per ligand density in assay [3] worked out at 5.2.

As to “Protein G ligand of the commercial carrier HiTrap Protein-G HP (GE Healthcare)”, in assay [6], the Recovery rate was 6%. The substance also returned a 55% DBC in assay [4] of 9.7 mg/mL-gel.

In assay [7], “Protein G ligand of the commercial carrier Protein-G Sepharose FF (GE Healthcare)” showed a 55% DBC of 6.2 mg/mL-gel.
